In patent US20220315654A1 one finds EC50 (read off the curve) data, which are given here for one substance.

The test addresses recombinant cynomolgus monkey PD-L1 soluble protein (biotinylated) (cynomolgus monkey) (UniProt G7PSE7). The experiment in a line: sandwich ELISA: antibody captured on coated anti-human Fc, biotinylated recombinant cynomolgus PD-L1 titrated (x axis, nM), streptavidin-HRP/Amplex red fluorescence. (An ELISA detects its analyte on a solid surface through an enzyme-linked reagent.)

Chain of Avelumab (antibody) (VH): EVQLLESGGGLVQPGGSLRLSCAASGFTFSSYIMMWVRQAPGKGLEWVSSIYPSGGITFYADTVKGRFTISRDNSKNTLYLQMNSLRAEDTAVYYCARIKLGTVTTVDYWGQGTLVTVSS
Chain of Avelumab (antibody) (VL): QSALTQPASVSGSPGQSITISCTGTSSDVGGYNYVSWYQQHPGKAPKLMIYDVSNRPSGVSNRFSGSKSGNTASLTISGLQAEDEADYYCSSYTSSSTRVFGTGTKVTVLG
Chain of recombinant cynomolgus monkey PD-L1 soluble protein (biotinylated) (cynomolgus monkey) (G7PSE7 entry or part of it limits assumed): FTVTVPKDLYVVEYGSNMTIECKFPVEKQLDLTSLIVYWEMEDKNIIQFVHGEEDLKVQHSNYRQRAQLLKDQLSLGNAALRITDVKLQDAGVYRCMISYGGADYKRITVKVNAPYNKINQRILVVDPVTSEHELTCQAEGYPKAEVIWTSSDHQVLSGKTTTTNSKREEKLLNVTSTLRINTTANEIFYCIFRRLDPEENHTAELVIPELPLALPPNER

As for Avelumab (antibody), the EC50 (read off the curve) (commonly the concentration needed to bring the measured effect to its halfway point) stood at 50 pM.
